Values of other authors, collected in article PMC4596477, “Interaction of Myosin Phosphatase Target Subunit (MYPT1) with Myosin Phosphatase-RhoA Interacting Protein (MRIP): A Role of Glutamic Acids in the Interaction” (PLoS ONE, 2015).

Test system: full-length MYPT1
Details: immunoprecipitation and immunoblotting; ref [7],[11],[12]; cited from earlier work
Text: It is, however, not clear which residues of MRIP are critical for its binding to MYPT1.

B1: MRIP: Myosin phosphatase-RhoA interacting protein (protein, UniProt Q6WCQ1 1-1025, looked up)
chain: MSAAKENPCRKFQANIFNKSKCQNCFKPRESHLLNDEDLTQAKPIYGGWLLLAPDGTDFDNPVHRSRKWQRRFFILYEHGLLRYALDEMPTTLPQGTINMNQCTDVVDGEGRTGQKFSLCILTPEKEHFIRAETKEIVSGWLEMLMVYPRTNKQNQKKKRKVEPPTPQEPGPAKVAVTSSSSSSSSSSSIPSAEKVPTTKSTLWQEEMRTKDQPDGSSLSPAQSPSQSQPPAASSLREPGLESKEEESAMSSDRMDCGRKVRVESGYFSLEKTKQDLKAEEQQLPPPLSPPSPSTPNHRRSQVIEKFEALDIEKAEHMETNAVGPSPSSDTRQGRSEKRAFPRKRDFTNEAPPAPLPDASASPLSPHRRAKSLDRRSTEPSVTPDLLNFKKGWLTKQYEDGQWKKHWFVLADQSLRYYRDSVAEEAADLDGEIDLSACYDVTEYPVQRNYGFQIHTKEGEFTLSAMTSGIRRNWIQTIMKHVHPTTAPDVTSSLPEEKNKSSCSFETCPRPTEKQEAELGEPDPEQKRSRARERRREGRSKTFDWAEFRPIQQALAQERVGGVGPADTHEPLRPEAEPGELERERARRREERRKRFGMLDATDGPGTEDAALRMEVDRSPGLPMSDLKTHNVHVEIEQRWHQVETTPLREEKQVPIAPVHLSSEDGGDRLSTHELTSLLEKELEQSQKEASDLLEQNRLLQDQLRVALGREQSAREGYVLQATCERGFAAMEETHQKKIEDLQRQHQRELEKLREEKDRLLAEETAATISAIEAMKNAHREEMERELEKSQRSQISSVNSDVEALRRQYLEELQSVQRELEVLSEQYSQKCLENAHLAQALEAERQALRQCQRENQELNAHNQELNNRLAAEITRLRTLLTGDGGGEATGSPLAQGKDAYELEVLLRVKESEIQYLKQEISSLKDELQTALRDKKYASDKYKDIYTELSIAKAKADCDISRLKEQLKAATEALGEKSPDSATVSGYDIMKSKSNPDFLKKDRSCVTRQLRNIRSKSVIEQVSWDT
modifications: full-length
Q: Which “interaction with full-length MYPT1” value does the source give for B1 here?
A: Its value is “interacts with the full-length MYPT1”.
